The results in this text go back to PMC9120130.

The target in the experiment is Human ACE2-hIgG1Fc (human) (UniProt Q9BYF1). The experiment in a line: SPR.
Sequence of Human ACE2-hIgG1Fc (human) (Q9BYF1 18-740): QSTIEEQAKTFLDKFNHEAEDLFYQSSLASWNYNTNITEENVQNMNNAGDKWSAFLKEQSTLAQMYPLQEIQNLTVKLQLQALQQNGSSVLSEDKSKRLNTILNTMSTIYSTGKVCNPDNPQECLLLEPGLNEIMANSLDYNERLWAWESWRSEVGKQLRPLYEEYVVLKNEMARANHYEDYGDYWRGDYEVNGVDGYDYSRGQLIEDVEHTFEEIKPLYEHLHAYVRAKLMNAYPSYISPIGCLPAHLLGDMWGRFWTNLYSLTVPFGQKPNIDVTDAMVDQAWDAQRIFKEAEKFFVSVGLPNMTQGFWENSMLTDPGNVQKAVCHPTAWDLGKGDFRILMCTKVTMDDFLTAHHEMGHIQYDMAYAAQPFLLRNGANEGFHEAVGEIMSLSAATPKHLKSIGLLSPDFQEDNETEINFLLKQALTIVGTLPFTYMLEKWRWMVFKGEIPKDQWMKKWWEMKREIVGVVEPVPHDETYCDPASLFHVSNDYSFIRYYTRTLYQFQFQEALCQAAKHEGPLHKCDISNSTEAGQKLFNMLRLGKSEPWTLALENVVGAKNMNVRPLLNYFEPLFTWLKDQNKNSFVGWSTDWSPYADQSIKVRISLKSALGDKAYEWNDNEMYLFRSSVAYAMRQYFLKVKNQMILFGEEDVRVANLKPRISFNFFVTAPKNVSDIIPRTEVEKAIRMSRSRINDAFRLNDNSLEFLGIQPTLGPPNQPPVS

With Wuhan RBD, the Kd was 7.3 nM and the koff was determined as 0.0051 s⁻¹.

The term Kd denotes the free concentration of one partner at which half of the binding sites on the other are occupied at equilibrium, for simple one-to-one binding. A low value points to tighter binding. What is called koff is the first-order rate constant of dissociation. A lower koff goes with a long-lived complex.
